Patent US20170128596A1, “Peptide-Based Compounds and Their Uses for Tumor Imaging and Targeting” (Klinikum rechts der lsar der Technischen Universitaet …, priority 2014, published 2017)
One block for each compound: values may come before it.

How the values were obtained:
[1] = tested on: MCF7, MDA-MB-231, T47D cells; assay: Peptide uptake into human breast cancer cell lines by confocal microscopy; assay type: cell-based; conditions: 30 min at 37° C.
Description: Human breast cancer cell lines (MCF7, MDA-MB-231, T47D) expressing different levels of membrane Hsp70 were incubated with CF-TPP or a scrambled peptide for 30 min at 37° C. and internalization of the peptides was imaged by confocal microscopy.

[2] = Ex vivo biodistribution in CT26 tumor-bearing mice by NIRF quantification; design: species or system mouse; conditions: i.v.
Description: Regression equation of linear regression analysis (lower panel). The concentration of TPP[Cy5.5] in organs was calculated using this regression equation. Scale bar, 5 mm.
For biodistribution tumor-bearing mice were sacrificed 12, 24 or 48 h after i.v. injection of TPP[Cy5.5]. Fluorescent signal intensities of 0.25 cm^3 tissue cubes, taken from the tumor, spleen, pancreas, liver, lung, duodenum, kidney, heart, and 0.25 ml of peripheral blood were measured as described above. Agarose-gel cubes with standardized concentrations were used to calculate the probe concentrations in the investigated tissue samples.
After the mice had been sacrificed, the contents of TPP[Cy5.5] in the tumors and organs (spleen, pancreas, liver, lung, duodenum, kidney, heart and blood) were assessed. […] Fluorescence intensities of the tissues were measured as described in the imaging procedures chapter. Quantification of the Cy5.5 contents in the defined tissue volumes was calculated using fluorescence signal intensities of standards with defined concentrations. […] Fluorescence signal intensity was measured using the same instrument settings than for the tissue specimen (FIG. 10, upper panel). […] Linear regression equation of the standards was calculated with Microsoft Excel 2007 (FIG. 10, lower panel). The concentration of TPP[Cy5.5] in organs was calculated using the regression equation.

[3] = Toxicity testing in healthy and tumor-bearing BALB/c mice
Description: Concentrations up to 500 μg of TPP per mouse were tested in tumor-bearing mice (s.c. tumors, size 0.4 cm^3). The health status and the general behavior of mice were inspected. Animals were sacrificed on day 5 and the heart, liver, spleen, lung and kidneys examined for pathological changes using standard histological techniques.

[4] = target: membrane-bound Heat shock protein 70 (Hsp70) on murine tumor cells (mouse) (UniProt Q61696); assay: flow cytometry, single cell suspension of CAC murine colon tumor
[5] = target: membrane-bound Heat shock protein 70 (Hsp70) on murine tumor cells (mouse) (UniProt Q61696); assay: flow cytometry, single cell suspension of PDAC murine pancreas tumor
[6] = target: membrane-bound Heat shock protein 70 (Hsp70) on human tumor cells (human) (UniProt P0DMV8); assay: flow cytometry, single cell suspension of in vivo-grown A549 human lung tumor
[7] = target: membrane-bound Heat shock protein 70 (Hsp70) on human tumor cells (human) (UniProt P0DMV8); assay: flow cytometry, single cell suspension of in vivo-grown CX-2 human colon tumor
[8] = target: membrane-bound Heat shock protein 70 (Hsp70) on murine tumor cells (mouse) (UniProt Q61696); assay: flow cytometry, single cell suspension of in vivo-grown CT26 murine colon tumor
[9] = target: membrane-bound Heat shock protein 70 (Hsp70) on human tumor cells (human) (UniProt P0DMV8); assay: flow cytometry, single cell suspension of in vivo-grown H-1339 human lung tumor
[10] = target: membrane-bound Heat shock protein 70 (Hsp70) on human tumor cells (human) (UniProt P0DMV8); assay: flow cytometry, single cell suspension of in vivo-grown HeLa human cervix tumor
[11] = target: membrane-bound Heat shock protein 70 (Hsp70) on murine tumor cells (mouse) (UniProt Q61696); assay: flow cytometry, single cell suspension of in vivo-grown 4T1 murine mammary tumor
[12] = target: membrane-bound Heat shock protein 70 (Hsp70) on human tumor cells (human) (UniProt P0DMV8); assay: flow cytometry, single cell suspension of in vivo-grown HCT-116 human colon tumor
[13] = target: membrane-bound Heat shock protein 70 (Hsp70) on human tumor cells (human) (UniProt P0DMV8); assay: flow cytometry, single cell suspension of in vivo-grown MCF-7 human mammary tumor
[14] = target: membrane-bound Heat shock protein 70 (Hsp70) on human tumor cells (human) (UniProt P0DMV8); assay: flow cytometry, single cell suspension of in vivo-grown T-47D human mammary tumor
[15] = target: membrane-bound Heat shock protein 70 (Hsp70) on human tumor cells (human) (UniProt P0DMV8); assay: flow cytometry, single cell suspension of in vivo-grown Panc-1 human pancreas tumor
[16] = target: membrane-bound Heat shock protein 70 (Hsp70) on human tumor cells (human) (UniProt P0DMV8); assay: flow cytometry, single cell suspension of in vivo-grown COLO357 human pancreas tumor
[17] = target: membrane-bound Heat shock protein 70 (Hsp70) on human tumor cells (human) (UniProt P0DMV8); assay: flow cytometry, single cell suspension of in vivo-grown FaDu human head & neck tumor
[18] = target: membrane-bound Heat shock protein 70 (Hsp70) on human tumor cells (human) (UniProt P0DMV8); assay: flow cytometry, single cell suspension of in vivo-grown MDA-MB231 human mammary tumor
[19] = target: membrane-bound Heat shock protein 70 (Hsp70) on human tumor cells (human) (UniProt P0DMV8); assay: flow cytometry, single cell suspension of in vivo-grown Cal-33 human head & neck tumor
[20] = target: membrane-bound Heat shock protein 70 (Hsp70) on human tumor cells (human) (UniProt P0DMV8); assay: flow cytometry, single cell suspension of in vivo-grown MIA PaCa-2 human pancreas tumor

Sequence of membrane-bound Heat shock protein 70 (Hsp70) on human tumor cells (human) (P0DMV8 2-641): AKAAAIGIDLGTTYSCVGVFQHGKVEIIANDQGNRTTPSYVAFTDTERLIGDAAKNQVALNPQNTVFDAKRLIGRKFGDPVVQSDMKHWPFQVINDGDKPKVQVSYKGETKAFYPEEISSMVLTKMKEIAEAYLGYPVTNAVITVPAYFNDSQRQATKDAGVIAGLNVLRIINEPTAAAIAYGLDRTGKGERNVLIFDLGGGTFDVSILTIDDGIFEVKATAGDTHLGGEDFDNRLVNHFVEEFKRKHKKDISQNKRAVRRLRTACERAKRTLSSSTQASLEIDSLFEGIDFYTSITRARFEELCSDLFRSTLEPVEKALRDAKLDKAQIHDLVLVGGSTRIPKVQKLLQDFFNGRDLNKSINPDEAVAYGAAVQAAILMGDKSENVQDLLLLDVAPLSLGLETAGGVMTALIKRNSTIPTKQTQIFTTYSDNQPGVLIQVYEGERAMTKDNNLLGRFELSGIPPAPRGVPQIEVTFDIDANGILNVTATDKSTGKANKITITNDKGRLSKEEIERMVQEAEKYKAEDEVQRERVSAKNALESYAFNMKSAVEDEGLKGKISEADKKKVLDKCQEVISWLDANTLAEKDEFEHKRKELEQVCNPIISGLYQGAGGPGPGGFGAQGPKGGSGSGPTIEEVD
Sequence of membrane-bound Heat shock protein 70 (Hsp70) on murine tumor cells (mouse) (Q61696 2-641): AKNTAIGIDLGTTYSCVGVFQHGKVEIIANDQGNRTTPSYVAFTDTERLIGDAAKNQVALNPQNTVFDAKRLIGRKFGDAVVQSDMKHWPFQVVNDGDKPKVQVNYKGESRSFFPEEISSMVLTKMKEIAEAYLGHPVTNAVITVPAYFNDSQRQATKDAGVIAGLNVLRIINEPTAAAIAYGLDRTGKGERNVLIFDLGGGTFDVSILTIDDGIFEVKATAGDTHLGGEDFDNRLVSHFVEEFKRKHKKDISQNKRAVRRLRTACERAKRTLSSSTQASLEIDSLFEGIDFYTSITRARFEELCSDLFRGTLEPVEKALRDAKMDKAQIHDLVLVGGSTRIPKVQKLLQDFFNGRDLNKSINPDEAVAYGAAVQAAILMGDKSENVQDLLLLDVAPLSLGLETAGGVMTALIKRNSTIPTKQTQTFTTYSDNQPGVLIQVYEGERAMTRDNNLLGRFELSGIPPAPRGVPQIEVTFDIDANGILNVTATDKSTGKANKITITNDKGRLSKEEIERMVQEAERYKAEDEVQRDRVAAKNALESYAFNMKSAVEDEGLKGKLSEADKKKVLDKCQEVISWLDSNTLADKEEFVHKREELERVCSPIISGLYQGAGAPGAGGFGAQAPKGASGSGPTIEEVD

Compound: NGLTLKNDFSRLEG (scrambled control peptide)
internalization into tumor cells [1]: not internalized

Compound: CC(C)C[C@H](NC(=O)[C@H](CC(C)C)NC(=O)[C@H](CC(N)=O)NC(=O)[C@H](CC(N)=O)NC(=O)[C@H](CC(=O)O)NC(=O)[C@H](CCCCN)NC(=O)[C@@H](N)[C@@H](C)O)C(=O)NCC(=O)N[C@@H](CCCNC(=N)N)C(=O)N[C@@H](Cc1ccccc1)C(=O)N[C@@H](CCC(=O)O)C(=O)N[C@@H](CC(C)C)C(=O)N[C@@H](CO)C(=O)NCC(=O)O [TPP, TKDNNLLGRFELSG]
route of clearance [2]: cleared from the body by renal excretion
loss of weight or change in mobility ([3]; BALB/c mice, i.v. 500 to 1050 μg): Nor did any animal exhibit any loss of weight or change in mobility
gross monitoring for toxic reactions (skin ulcerations, toxic death) ([3]; BALB/c mice, i.v. 500 to 1050 μg (25 to 50 μg/g)): did not show any toxic reactions
histological examination of heart, liver, spleen, lung and kidney ([3]; day 5 after injection): no pathological changes
side effects in tumor-bearing mice ([3]; up to 500 μg per mouse): did not exert any side effects

% membrane-positive cells [4]: 51.2%
% membrane-positive cells [5]: 50%
% membrane-positive cells [6]: 76.3%
% membrane-positive cells [7]: 56.6%
% membrane-positive cells [8]: 55.5%
% membrane-positive cells [9]: 60%
% membrane-positive cells [10]: 55%
% membrane-positive cells [11]: 56.3%
% membrane-positive cells [12]: 63.3%
% membrane-positive cells [13]: 58%
% membrane-positive cells [14]: 48%
% membrane-positive cells [15]: 46%
% membrane-positive cells [16]: 57.8%
% membrane-positive cells [17]: 59%
% membrane-positive cells [18]: 63.3%
% membrane-positive cells [19]: 68.1%
% membrane-positive cells [20]: 58.5%
Compound: cmHsp70.1 monoclonal antibody (FITC-conjugated for flow cytometry)
